Experiment: yeast display, Sf9 membrane polyspecificity reagent, FACS + sequencing; frameworks hold sequencing errors
Outline: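 Galactose induction of a Saccharomyces cerevisiae BJ5465 synthetic nanobody display library ran 36–48 hours. The cells were then stained for 1 hour at 4 °C with 10% biotinylated, detergent-solubilized Sf9 membrane reagent, pulled down on streptavidin microbeads and FACS-sorted into low and high (top ~1%) gates on expression and reagent-binding fluorescence. Labels for polyreactivity follow the gate of origin.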

| Sequence | polyreactivity (PSR sort gate) |
| --- | --- |
| QVQLVESGGGLVQAGGSLRLICAASGFIFFINDMGWYRQAPGKERELVAAISWSCGSTYYADSVKGRFTISRDNAKNTVYLQMNSLKPEDTAVYYCNTDVPTAQYDYWGQGTQVTVSS | low polyreactivity |
| QVQLVESGGGLVQAGGSLRLICAASGFIFLVNAMGWYRQAPGKERELVAAISLSTTSTYYADSVKGRFTISRDNAKNTVYLQMNSLKPEDTAVYYCAADHWGVGAPTYGQYTTHDYWGQGTQVTVSS | low polyreactivity |
| QVQLVESGGGLVQAGGSLRLICAASGFTFADNSMAWYRQAPGKEREFVASITYSTGSTYADSEKGRVTISRDNAKNTVYLEMHSLKPEDTAVYYCAVDNISNWAVENDDWGQGTLVTVSS | low polyreactivity |
| QVQLVESGGGLVQAGGSLRLICAASGFTFCLYAMGWYRQAPGKERELVADIDWDGGTYYADSVKGRFTISRDNAKNTVYLQMNSLKPEDTAVYYCAAELTEWTNGFDYWGQGTQETVSS | high polyreactivity |
| QVQLVESGGGLVQAGGSLRLICAASGFTFDFYAMGWYRQAPGKERELVATISYSGASTYYADSVKGRFTISRDNAKNTVYLEMNSLKPEVTAVYYCAAYYPTRYQYGTIWVAYNYWGQGTQVTVSS | low polyreactivity |
| QVQLVESGGGLVQAGGSLRLICAASGFTFGPYDMGGYRQAPGKERELVAAITDSSGSTHYADSVKGRFTISRDNAKNTVYLQMNSLKPEDTAVYYCAASDVVFALNGYYPGEDDYWGQGTQVTVSS | low polyreactivity |
| QVQLVESGGGLVQAGGSLRLICAASGFTFPSYAMGWYRQAPGKEREFVAGITKGGGNTYYADSVKGRFTISRDNAKNTVYLQMNSLIPEDTAVYYCAADRSSFYWSHGTVYGYDYWGQGTQVTVSS | low polyreactivity |
| QVQLVESGGGLVQAGGSLRLICAASGFTFPWNVMGWYRQAPGKERELVAAITYDGGGTYADSVKGRFTISRDNAKNTVYLQMNSLKPEDTAVYYCNADLIYGEEYDYWGQGTQVTVSS | low polyreactivity |
| QVQLVESGGGLVQAGGSLRLICAASGFTFPWYAMGWYRQAPGKERELVATITSGGRTNYADSVKGRFTISRDNAKNTVYLQMNSLKPEDTAVYYCAARASKYSYRTDPWHGDYWGQGTQVTVSS | high polyreactivity |
| QVQLVESGGGLVQAGGSLRLICAASGFTFSYYAMGWSRQAPGKERELVAANSWSGTSTYYADSVKGRFTISRDNAKNTVYLQMNSLKPEDTAVYYCAAGYSASRKVDYRGQGTQVTVSS | high polyreactivity |
| QVQLVESGGGLVQAGGSLRLICAASGGIFNYYAMGWYREAPGKERELVAAISASGGSTYYADSVKGRFTISRDNAKNTVYLQMNSLKPEDTAVYYCAAGLPYGYGYDYWGQGTQVTVSS | low polyreactivity |
| QVQLVESGGGLVQAGGSLRLICAASGGIFTRNDMGWYRQAPGKERELVAGISWRGGSTYYADSVKGRFTISRDNAKNTVYLQMNSLKPEDTAVYYCAALDTGGERDYWGQGTQVNVSS | low polyreactivity |
| QVQLVESGGGLVQAGGSLRLICAASGGIFVYYAMGWYRQAPGKERELVAAISSGGTTNYADSVKGRFTISRDNAKNTVYLQMNSLKPEDTAVYYCAIYVSWPLYYYWGQCTQVTVSS | low polyreactivity |
| QVQLVESGGGLVQAGGSLRLICAASGGTFWIYAMGWYRQAPGKERELVAGITTSGATTYYADSVKGRFTISRDNAKNTVYLQMNSLKPEDTAVYYCAADEYYRYEYWGQGTQVTVSS | low polyreactivity |
| QVQLVESGGGLVQAGGSLRLICAASGIIFSDYAMGWYRQAPGKERELVAAITGGGSTYYADSVKGRFTISRDNAKNTVYLQMNSLKPEDTAVYYCNADTWGFTYYYWGQGTQVTVSS | low polyreactivity |
| QVQLVESGGGLVQAGGSLRLICAASGIIFWAYDMGWYRQAPGKERELVAAITWGGGSTYYADSVKGRFTISRDNAKNTVYLQMNSLKPEDTAVYYCAADRYVFQGYGPEVDYWGQGTQVTVSS | low polyreactivity |
| QVQLVESGGGLVQAGGSLRLICAASGITFRRYGMGWYRQAPGKERELVATITSSVGSRTYYADSVKGRLTISRDNAKNTVYLQMNSLKPEDTAVYYCAADHRVYDYEYWGQGTQVTVSS | low polyreactivity |
| QVQLVESGGGLVQAGGSLRLICAASGLIFYKYAMGWYRQAPGKERELVAAITSGGSTNYADSVKGRFTISRDNAKNSVYLQMNSLKPEVTAVYYCNADYNHYLVVRWWYPPVDYWGQGSQVTVSS | low polyreactivity |
| QVQLVESGGGLVQAGGSLRLICAASGLILKNYAMGWYRQAPGKERELVAAITRSGGSTYYADSVKGRFTISRDNAKNTVYLQMNSLKPEDTAVYDCAARNPSGKGRYDYWGQGTQVTVSS | high polyreactivity |
| QVQLVESGGGLVQAGGSLRLICAASGLTFGSYAMGWYRQAPGKERELVAAISRSGGSTYYADSVKGRFTISRDNAKNTVYLQMNSLKPEDTAVYYCNAVNPYYAPTDRRVGYDYWGQGTQVTVSS | high polyreactivity |
| QVQLVESGGGLVQAGGSLRLICAASGLTFLNNAMGSYRQAPGKERELVAAISDGGSTNYADSVKGRFTISRDNAKNTVYLQMNSLKAEDTAVYYCAAVYTSASSGSWGQGTQVTVSS | low polyreactivity |
| QVQLVESGGGLVQAGGSLRLICAASGLTFPTYAMAWYRQAPGKERELVAAISRIGGRTYYADSVKGRFTISRDNAKNTVYLQMNSLKPEETAVYYCAADGIKGGVEYDYWGQGTQVTVSS | high polyreactivity |

| Sequence | polyreactivity (PSR sort gate) |
| --- | --- |
| QVQLVESGGGLVQAGGSLRLICAASGLTFRVYTMGWYRQAPGQERELVASISRSGASTYYADSVKGRFTISRDNAKNTVYLQMNSLKPEDTAVYYCNAVTSWPRRDFDYWGQGTQVTVSS | high polyreactivity |
| QVQLVESGGGLVQAGGSLRLICAASGLTSGLNAMGWYRPAPGKERELVATIRTNGGSTYYADSVKGRFTISRDNAKNNVYLQMNSLKPEDTAVYYCAADDKGGFAVEYDYWGQGTQVTVSS | low polyreactivity |
| QVQLVESGGGLVQAGGSLRLICAASGNIFTYYAMGWYRQAPWKERELVAAISSGDSTNYADSVKGRFTISRDNAKNTVYLQMNSLKPEDTAVYYCNVDRVPSRRYYAQKGYFRYYYWGQGTQVTVSS | high polyreactivity |
| QVQLVESGGGLVQAGGSLRLICAASGRIFFVNAMGWYRQAPGKERELVAAISRSAGRTYYADSVKGRFTISRDNAKNTVYLQMNSLKPEDTAVYYCATEGRTDYNREMEYWGQGTQVTVSS | low polyreactivity |
| QVQLVESGGGLVQAGGSLRLICAASGRIFGFNAMGWYRQAPGKERELVAAISGRSGRTYYADSVKGRFTISRDNAKITVYLQMNSLKPEDTAVYYCNTVGYRGPSWYDYWGQGTQVTVSS | high polyreactivity |
| QVQLVESGGGLVQAGGSLRLICAASGRIFGKNDMGWYREAPRKEREFVATIDWSGGSTYYADSVKGRFTISRDNAKNTVDLQMNSLIPEDNAVYYCAARQYWTTDLPFQRYYYWGQGTQVTVSS | low polyreactivity |
| QVQLVESGGGLVQAGGSLRLICAASGRIFGRYTMGWYRQAPGKETELVAGITYSGGSTYYADSVKGRFTISRDNAKNTVYLQMNSLKPEDTAVYYCAARWRGSGGFDYWGQGTQVTVSS | high polyreactivity |
| QVQLVESGGGLVQAGGSLRLICAASGRIFGYNAMGWYRQEPGKERELVAAISSGGSTYYADSVKGRFTISRDHAKNTVYLQMNSLKPEDTAVYYCAAEDYPPYTTEYDYWGQGTQVTVSS | low polyreactivity |
| QVQLVESGGGLVQAGGSLRLICAASGRIFGYYAMGWYRQAPGKERELVAAISRAGSTYYADSVKGRFTISRDNAKNTVSLQMNSLKPEDTAVYYCAAVRSVQRHYTEMYYWGQVTQVTVSS | high polyreactivity |
| QVQLVESGGGLVQAGGSLRLICAASGRIFGYYAMGWYRQAPGKERELVATITFGGGSSYYADSVKGRFTISRDNAKNTVNLQMNSLKPEDTAVYYCAAVSGYLGIYGDEYSWGQGTQVTVSS | low polyreactivity |
| QVQLVESGGGLVQAGGSLRLICAASGRIFGYYTMGRYRQAPGKERELVADNNRDGSTYADSVKGRFTISRDNAKNSVYIQMNSLKPEDTAVYYCIAQYDSAYGLGFFIGYFSQYDYWGQGTQVTVSS | low polyreactivity |
| QVQLVESGGGLVQAGGSLRLICAASGRIFHGNAMGWYRQAPGKERELVAAISRRGGSTYYADSVKGRFTISRDNAKNTVYLQMNSLKPEDTAVYYCASVYYNGIRYGYWGQGTQVTVSS | high polyreactivity |
| QVQLVESGGGLVQAGGSLRLICAASGRIFKINAMGWYRQAPGKERELVAGISGSGSDTYYADSVKGSFTISRDNAKYTVYLQMNSLKPEDTAVYYCAAVAYDWALFYYWGQGTQVTVSS | low polyreactivity |
| QVQLVESGGGLVQAGGSLRLICAASGRIFLNSTMGSYRQEPGKERELVADITWRGGSTYYADSVKGRFTISRDNAKNTVYLQMNSLKPEDTAVYYWNAVSVSSKRSDYWVQGTQVTVSS | low polyreactivity |
| QVQLVESGGGLVQAGGSLRLICAASGRIFRYNALGWYRQAPGKERELVATISGTSRTKYADSVKGRFTISRDNAKHTVYLQMNSLKPEDTAVYYCAARRYGWGRAQSSASYDHWGQGTQVTVSS | high polyreactivity |
| QVQLVESGGGLVQAGGSLRLICAASGRIFRYYAMGWYRQAPGKERELVAAISYSGGSTYYADSVKGRFTISRDNEKNTVYLQMNILKPEDTAVYYCNAGSWKSYYSTVRYLTYSMYYWGQGTQVTVSS | high polyreactivity |
| QVQLVESGGGLVQAGGSLRLICAASGRIFSGNTMGWYRQAPGKERELVAAISKSGGRTYYADSVKGRFTISRDNAKYTFYLQMNSLKPEDTAVYYCNADYRSHYLYDYWGQGTQVTVSS | low polyreactivity |
| QVQLVESGGGLVQAGGSLRLICAASGRIFWQYAMGWYRQAPGKERELVAAISRSGGSTYYADSVKGRFTISRDNAKNTVYLQMNSLKPEDTAVYYCAARKASGVPGSAGRPEYYYWGQGTQVTVSS | high polyreactivity |
| QVQLVESGGGLVQAGGSLRLICAASGRIFWSNAMRWSRQAPGKVSELVAAISSGGSTYYADSVKGRFTISRDNAKNTVYLQMNRLKPEDTAVYYCATRGIQRGFSRWGGLDYWGQGTLVTVSS | low polyreactivity |
| QVQLVESGGGLVQAGGSLRLICAASGRIFYFYAMGWYRQAPGKERELVAAISTSGGSTYYADSVKGRFTISRDNAKNTVYLQMNSLKPEDTAVYYCAARFRYYGSEYDYWGQGTQVTVSS | low polyreactivity |
| QVQLVESGGGLVQAGGSLRLICAASGRIFYGYAMGWYRQAPGKEREFVAAITVSAGSTYYADSVKGRFTISRDYAKNTVYLQMNSLKPEDTAVYYCAAKRYVYPSYRFDYWGQGTQVTVSS | low polyreactivity |

From the nanobody polyreactivity screen of Harvey et al. (2022)
